In test [1] the target is T1, ROPN1B peptide on HLA-A*02:01 (human).
T1 peptide: MLNYIEQEV
Briefly: multimer staining.

The target of test [2] is T2, ROPN1B epitope 1 (MLN) with alanine at position 8 peptide on HLA-A*02:01 (human).
T2 peptide: MLNYIEQAV
Briefly: cytokine release.

Test [3] has as its target T3, gp100 peptide on HLA-A*02:01 (human).
T3 peptide: YLEPGPVTA
As to the kind of experiment: cytokine release.

Test [4] deals with T4, ROPN1 (counterpart of the ROPN1B MLN epitope, one residue different) peptide on HLA-A*02:01 (human).
T4 peptide: MLNYMEQEV
As to the kind of experiment: cytokine release.

In test [5] the target is T5, ROPN1B epitope 1 (MLN) with alanine at position 9 peptide on HLA-A*02:01 (human).
T5 peptide: MLNYIEQEA
As to the kind of experiment: cytokine release.

The target of test [6] is T6, ROPN1B epitope 1 (MLN) with alanine at position 6 peptide on HLA-A*02:01 (human).
T6 peptide: MLNYIAQEV
Briefly: cytokine release.

1 molecule from US20240131155A1, “T CELLS FOR USE IN THERAPY” (Erasmus University Medical Center Rotterdam, priority 2021, published 2024) can be followed below.

B1: MLN-TCR2 (TCR, V domains shown)
Valpha: GEDVEQSLFLSVREGDSSVINCTYTDSSSTYLYWYKQEPGAGLQLLTYIFSNMDMKQDQRLTVLLNKKDKHLSLRIADTQTGDSAIYFCAEDGGGSYIPTFGRGTSLIVHP
Vbeta: EAGVTQFPSHSVIEKGQTVTLRCDPISGHDNLYWYRRVMGKEIKFLLHFVKESKQDESGMPNNRFLAERTGGTYSTLKVQPAELEDSGVYFCASSPGPGQNSPLHFGNGTRLTVT
Consider B1, for which the binding result was “recognises” in test [1]; “recognises” in test [2]; “no recognition” in test [3]; “no recognition” in test [4]; “recognises” in test [5]; “recognises” in test [6].
